According to the supplement of paper PMC11780869:

System: Bacillus subtilis
Test: cleaved RNA product abundance (RNA/gDNA barcode ratio) relative to median wild-type variant (ratio to wild type); higher = more accumulation of the downstream cleavage product
Details: cleavage site: cggR-gapA (positions -7 to +36 mutated)
Method in brief: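 Truncated aprE or tetM reporter mRNAs with barcoded RNase Y cleavage-site windows, mutagenized from oligos at a 9% error rate, sat in the B. subtilis chromosome. Cells grew in LB at 37°C from OD600 0.0003 to 0.3. Gel-selected cleaved RNA was reverse transcribed and its barcodes sequenced with those from genomic DNA, collapsing by UMI. Cleaved product abundance equals the RNA:gDNA barcode ratio per construct over the median construct with the unmutated site.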

[1] = experiment (reporter, strain, medium): exp 2b: truncated aprE reporter, strain BJT200
[2] = experiment (reporter, strain, medium): exp 4a: truncated aprE reporter, strain BJT201 with 2% xylose (RNase J1 expressed)

Sequence | cleaved RNA product abundance [1] | cleaved RNA product abundance [2]
ACAGACGAAGGAGCCGCAAAGAAGTTATTAATGGATGAATAATCCCTCAATATACATATCTCTCACTTATTTAAA | 0.157 | 0.165
ACAGACGAAGGAGCCGCAAAGAAGTTATTAATGGATGAATAATCCCTCAATATAGATATCTCTCACTTATTTAAA | – | 0.215
ACAGACGAAGGAGCCGCAAAGAAGTTATTAATGGATGAATAATCCCTCAATATATATATCTCTCACTTATTTAAA | 0.0976 | 0.15
ACAGACGAAGGAGCCGCAAAGAAGTTATTAATGGATGAATAATCCCTCAATATCAATATCTCTCACTTATTTAAA | – | 0.0753
ACAGACGAAGGAGCCGCAAAGAAGTTATTAATGGATGAATAATCCCTCAATATTAATATCTCTCACTTATTTAAA | – | 0.0604
ACAGACGAAGGAGCCGCAAAGAAGTTATTAATGGATGAATAATCCCTCAATTTAAATATCTCTCACTTATTTAAA | 0.0807 | –
ACAGACGAAGGAGCCGCAAAGAAGTTATTAATGGATGAATAATCCCTCACTATAAATATCTCTCACTTATTTAAA | 0.0821 | –
ACAGACGAAGGAGCCGCAAAGAAGTTATTAATGGATGAATAATCCCTCAGTATAAATATCTCTCACTTATTTAAA | 0.0853 | 0.0629
ACAGACGAAGGAGCCGCAAAGAAGTTATTAATGGATGAATAATCCCTCATTATAAATATCTCTCACTTATTTAAA | – | 0.201
ACAGACGAAGGAGCCGCAAAGAAGTTATTAATGGATGAATAATCCCTCCATATAAATATCTCTCACTTATTTAAA | – | 0.12
ACAGACGAAGGAGCCGCAAAGAAGTTATTAATGGATGAATAATCCCTCGATATAAATATCTCTCACTTATTTAAA | 0.0785 | 0.116
ACAGACGAAGGAGCCGCAAAGAAGTTATTAATGGATGAATAATCCCTCTATATAAATATCTCTCACTTATTTAAA | – | 0.143
ACAGACGAAGGAGCCGCAAAGAAGTTATTAATGGATGAATAATCCCTGAATATAAATATCTCTCACTTATTTAAA | 0.0961 | 0.133
ACAGACGAAGGAGCCGCAAAGAAGTTATTAATGGATGAATAATCCCTTAATATAAATATCTCTCACTTATTTAAA | 0.806 | 0.625
ACAGACGAAGGAGCCGCAAAGAAGTTATTAATGGATGAATAATCCTTCAATATAAATATCTCTCACTTATTTAAA | 0.212 | 0.191
ACAGACGAAGGAGCCGCAAAGAAGTTATTAATGGATGAATAATCGCTCAATATAAATATCTCTCACTTATTTAAA | 0.077 | –
ACAGACGAAGGAGCCGCAAAGAAGTTATTAATGGATGAATAATCTCTCAATATAAATATCTCTCACTTATTTAAA | 0.108 | 0.14
ACAGACGAAGGAGCCGCAAAGAAGTTATTAATGGATGAATAATGCCTCAATATAAATATCTCTCACTTATTTAAA | 0.0612 | 0.105
ACAGACGAAGGAGCCGCAAAGAAGTTATTAATGGATGAATAATTCATCAATATAAATATCTCTCACTTATTTAAA | – | 0.316
ACAGACGAAGGAGCCGCAAAGAAGTTATTAATGGATGAATAATTCCTCAATATAAATATCTCTCACTTATTTAAA | 0.0864 | 0.12
ACAGACGAAGGAGCCGCAAAGAAGTTATTAATGGATGAATACTCCCTCAATATAAATATCTCTCACTTATTTAAA | – | 0.0655
ACAGACGAAGGAGCCGCAAAGAAGTTATTAATGGATGAATAGTCCCTCAATATAAATATCTCTCACTTATTTAAA | 0.0972 | –
ACAGACGAAGGAGCCGCAAAGAAGTTATTAATGGATGAATATTCCCTCAATATAAATATCTCTCACTTATTTAAA | – | 0.107
ACAGACGAAGGAGCCGCAAAGAAGTTATTAATGGATGAATCATCCCTCAATATAAATATCTCTCACTTATTTAAA | 0.122 | 0.189
ACAGACGAAGGAGCCGCAAAGAAGTTATTAATGGATGAATGATCCCTCAATATAAATATCTCTCACTTATTTAAA | – | 0.113
ACAGACGAAGGAGCCGCAAAGAAGTTATTAATGGATGAATTATCCCTCAATATAAATATCTCTCACTTATTTAAA | 0.112 | 0.0827

Sequence | cleaved RNA product abundance [1] | cleaved RNA product abundance [2]
ACAGACGAAGGAGCCGCAAAGAAGTTATTAATGGATGACTAATCCCTCAATATAAATATCTCTCACTTATTTAAA | 0.0938 | 0.114
ACAGACGAAGGAGCCGCAAAGAAGTTATTAATGGATGATTAATCCCTCAATATAAATATCTCTCACTTATTTAAA | – | 0.138
ACAGACGAAGGAGCCGCAAAGAAGTTATTAATGGATGCATAATCCCTCAATATAAATATCTCTCACTTATTTAAA | 0.133 | 0.169
ACAGACGAAGGAGCCGCAAAGAAGTTATTAATGGATGGATAATCCCTCAATATAAATATCTCTCACTTATTTAAA | – | 0.143
ACAGACGAAGGAGCCGCAAAGAAGTTATTAATGGATGTATAATCCCTCAATATAAATATCTCTCACTTATTTAAA | 0.0434 | 0.211
ACAGACGAAGGAGCCGCAAAGAAGTTATTAATGGATTAATAATCCCTCAATATAAATATCTCTCACTTATTTAAA | 0.149 | 0.242
ACAGACGAAGGAGCCGCAAAGAAGTTATTAATGGCTGAATAATCCCTCAATATAAATATCTCTCACTTATTTAAA | 0.11 | 0.0644
ACAGACGAAGGAGCCGCAAAGAAGTTATTAATGGGTGAATAATCCCTCAATATAAATATCTCTCACTTATTTAAA | – | 0.188
ACAGACGAAGGAGCCGCAAAGAAGTTATTAATGGTTGAATAATCCCTCAATATAAATATCTCTCACTTATTTAAA | 0.107 | 0.121
ACAGACGAAGGAGCCGCAAAGAAGTTATTAATGTATGAATAATCCCTCAATATAAATATCTCTCACTTATTTAAA | 0.101 | 0.1
ACAGACGAAGGAGCCGCAAAGAAGTTATTAATTGATGAATAATCCCTCAATATAAATATCTCTCACTTATTTAAA | 0.0997 | 0.0964
ACAGACGAAGGAGCCGCAAAGAAGTTATTACAGGATGAATAATCCCTCAATATAAATATCTCTCACTTATTTAAA | – | 0.165
ACAGACGAAGGAGCCGCAAAGAAGTTATTACCGGATGAATAATCCCTCAATATAAATATCTCTCACTTATTTAAA | – | 0.155
ACAGACGAAGGAGCCGCAAAGAAGTTATTACGAGATGAATAATCCCTCAATATAAATATCTCTCACTTATTTAAA | 0.104 | 0.113
ACAGACGAAGGAGCCGCAAAGAAGTTATTACGCGATGAATAATCCCTCAATATAAATATCTCTCACTTATTTAAA | – | 0.0746
ACAGACGAAGGAGCCGCAAAGAAGTTATTACGGAATGAATAATCCCTCAATATAAATATCTCTCACTTATTTAAA | 0.1 | 0.0966
ACAGACGAAGGAGCCGCAAAGAAGTTATTACGGCATGAATAATCCCTCAATATAAATATCTCTCACTTATTTAAA | 0.0982 | 0.204
ACAGACGAAGGAGCCGCAAAGAAGTTATTACGGGAAGAATAATCCCTCAATATAAATATCTCTCACTTATTTAAA | 0.152 | 0.322
ACAGACGAAGGAGCCGCAAAGAAGTTATTACGGGATAAATAATCCCTCAATATAAATATCTCTCACTTATTTAAA | – | 0.416
ACAGACGAAGGAGCCGCAAAGAAGTTATTACGGGATGAAAAATCCCTCAATATAAATATCTCTCACTTATTTAAA | 0.223 | 0.321
ACAGACGAAGGAGCCGCAAAGAAGTTATTACGGGATGAATAAACCCTCAATATAAATATCTCTCACTTATTTAAA | – | 0.158
ACAGACGAAGGAGCCGCAAAGAAGTTATTACGGGATGAATAAGCCCTCAATATAAATATCTCTCACTTATTTAAA | 0.189 | –
ACAGACGAAGGAGCCGCAAAGAAGTTATTACGGGATGAATAATACCTCAATATAAATATCTCTCACTTATTTAAA | – | 0.112
ACAGACGAAGGAGCCGCAAAGAAGTTATTACGGGATGAATAATCACTCAATATAAATATCTCTCACTTATTTAAA | 0.108 | –
ACAGACGAAGGAGCCGCAAAGAAGTTATTACGGGATGAATAATCCCTAAATATAAATATCTCTCACTTATTTAAA | 0.428 | 0.394
